“And” between values parts separate entries of the source, which are not always exact repeats. Equal entries are not always repeated.
Molecular target: the molecule itself
Experiment: SEC; gel filtration of the purified protein on a Superdex 200 16/60 column; aerobic conditions; data not shown

B1: IscR of Rhodobacter sphaeroides (His-tagged recombinant IscR) (natural protein, UniProt Q3J0R9 1-155, looked up)
chain: MKLSTKGRYAMVALVDLALAQKSGNELVSLAEVSKRQDISLPYLEQLFVKLRRAGLVEAVRGPGGGYKLARPAESIRVSEIMEAVEETVNAMHTGAGASGGVSGSRAQSLTNRLWEGLSAHVYVFLHQTRLSDIIKNEMRPCPAVPALFRVVDED
notes: IscR, Rhodobacter sphaeroides 2.4.1, locus RSP_0443 (KEGG), 155 amino acid residues; the coding region of iscR was amplified and cloned into pQE30; also called His-tagged IscR; RSP_0443; source: E. coli M15 (pQE30::iscR), overexpressed, purified (Ni-NTA)
In the case of B1, the “stoichiometry N” value is reported as 2 and 4.

— publication PMC4618611, “IscR of Rhodobacter sphaeroides functions as repressor of genes for iron-sulfur metabolism and represents a new type of iron-sulfur-binding protein” (MicrobiologyOpen, 2015)
